The target of assay [1] is 未変性の(天然に存在する)ヒトIL-13 (HDLM-2細胞から放出) (human) (UniProt P35225). Briefly: cell-based or functional assay.
Assay [2] deals with 組換え細菌由来のヒトIL-13 (Peprotech) (human) (UniProt P35225). Description: cell-based or functional assay.
Assay [3] deals with T1, 組換え細菌由来のネズミIL-13 (Peprotech) (murine (mouse), UniProt P20109 21-131, limits assumed).
T1 sequence (looked up): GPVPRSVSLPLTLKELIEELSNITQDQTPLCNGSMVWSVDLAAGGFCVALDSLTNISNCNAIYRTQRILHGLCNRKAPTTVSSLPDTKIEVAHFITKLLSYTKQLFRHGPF
Description: cell-based or functional assay.

The target of assay [4] is T1, 組換え細菌由来のネズミIL-13 (Peprotech). Description: SPR (BIAcore 2000), IgG4 amine-coupled to chip (~500 RU), IL-13 50-0.78 nM in solution.
Assay [5] concerns the target T2, 非ヒト霊長類IL-13 (アカゲザル/カニクイザル; バキュロウイルス発現, C末端親和性タグ付き) (rhesus / cynomolgus monkey).
T2 chain: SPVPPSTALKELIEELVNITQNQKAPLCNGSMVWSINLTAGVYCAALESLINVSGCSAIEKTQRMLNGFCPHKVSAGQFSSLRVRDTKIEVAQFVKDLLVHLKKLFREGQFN
Briefly: cell-based or functional assay.

For assay [6], the target named is ヒト変種IL-13 (Q130R) (バキュロウイルス発現, C末端親和性タグ付き) (human) (UniProt P35225). Briefly: cell-based or functional assay.
The target of assay [7] is 組換え細菌由来のヒトIL-13 (Peprotech) (human) (UniProt P35225). Description: SPR (BIAcore 2000), IgG4 amine-coupled to chip (~500 RU), IL-13 50-0.78 nM in solution. In general terms: SPR reads the build-up and loss of mass on a sensor chip optically.
Assay [8] deals with 野生型ヒトIL-13 (バキュロウイルス発現, C末端親和性タグ付き) (human) (UniProt P35225). Description: cell-based or functional assay.
The target of assay [9] is ヒト変種IL-13 (Q130R) (バキュロウイルス発現, C末端親和性タグ付き) (human) (UniProt P35225). Briefly: cell-based or functional assay. This is another data set of the same source.
For assay [10], the target named is 未変性の(天然に存在する)ヒトIL-13 (HDLM-2細胞から放出) (human) (UniProt P35225). Description: cell-based or functional assay. This is another data set of the same source.
Assay [11] addresses 組換え細菌由来のヒトIL-13 (Peprotech) (human) (UniProt P35225). Briefly: cell-based or functional assay. This is another data set of the same source.
Assay [12] deals with 組換えヒトエオタキシン-1 (R&D Systems) (human) (UniProt P51671). Briefly: cell-based or functional assay.
UniProt P51671, sequence (P51671 24-97 limits assumed): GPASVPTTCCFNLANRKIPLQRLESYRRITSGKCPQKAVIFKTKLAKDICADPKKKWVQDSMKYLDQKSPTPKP

Where two headings read alike, the source gives them in different places.

Usually Kd stands for the concentration at which binding is half-saturated. A lower Kd goes with higher affinity.

The molecule B-B13 (マウスIgG1, Euroclone) (antibody) yielded an IC50, HDLM-2細胞増殖アッセイ in [1] of 16.7 nM. In [2], this molecule returned an IC50, NHLFエオタキシン放出アッセイ of 0.219 nM and an IC50, TF-1細胞増殖アッセイ of 0.471 nM.
For the molecule BAK502G9 IgG4 (antibody), the IC50, HDLM-2細胞増殖アッセイ in [1] amounted to 4.6 nM.
“JES10-5A2 (ラットIgG1, Biosource) (antibody)”: the IC50, HDLM-2細胞増殖アッセイ in [1] is 10.7 nM. Besides, in [2], the IC50, NHLFエオタキシン放出アッセイ worked out at 0.623 nM and the IC50, TF-1細胞増殖アッセイ stood at 1.02 nM.

B1: BAK209B11 scFv (scFv, V domains shown)
VH: VQLQESGGGGLVQPGGSLRLSCAASGFTFSSYGMSWVRQAPGKGLEWVSSISASGDSTFYADSVKGRFTISRDNNKNMVFLQVNSLRADDTAVYFCAKDWSQWLVGDAFDVWGRGTTVTVSS
VL: DIQLTQSPSTLSASVGDRVTITCRASQSVSLWVAWYQQRPGKAPKLLIYDGSTLQSGVPARFSGSGSGTEFTLTISSLQPDDFATYYCQQYKTFSTFGQGTKVEIK
In the case of B1, the “IC50, TF-1細胞増殖アッセイ” value in assay [3] worked out at 185 nM.

B2: BAK209B11 IgG4 (antibody, V domains shown)
VH: VQLQESGGGGLVQPGGSLRLSCAASGFTFSSYGMSWVRQAPGKGLEWVSSISASGDSTFYADSVKGRFTISRDNNKNMVFLQVNSLRADDTAVYFCAKDWSQWLVGDAFDVWGRGTTVTVSS
VL: DIQLTQSPSTLSASVGDRVTITCRASQSVSLWVAWYQQRPGKAPKLLIYDGSTLQSGVPARFSGSGSGTEFTLTISSLQPDDFATYYCQQYKTFSTFGQGTKVEIKR
Turning to B2, in [3], the “IC50, B9細胞増殖アッセイ” value came to 0.776 nM. This molecule had a Kd in [4] of 5.1 nM.

B3: BAK502G9 IgG4 (antibody, V domains shown)
VH: QVQLVQSGAEVKKPGASVKVSCKASGYTFTNYGLSWVRQAPGQGLEWMGWISANNGDTNYGQEFQGRVTMTTDTSTSTAYMELRSLRSDDTAVYYCARDSSSSWARWFFDLWGRGTLVTVSS
VL: SYVLTQPPSVSVAPGKTARITCGGNIIGSKLVHWYQQKPGQAPVLVIYDDGDRPSGIPERFSGSNSGNTATLTISRVEAGDEADYYCQVWDTGSDPVVFGGGTKLTVL
In the case of B3, the “IC50, TF-1細胞増殖アッセイ” value in assay [5] stood at 2 nM; in assay [6], 1.9 nM.

B4: BAK1183H4 IgG4 (antibody, from another filing, V domains shown)
VH: QVQLVQSGAEVKKPGASVKVSCKASGYTFTNYGLSWVRQAPGQGLEWMGWINYDGGNTQYGQEFQGRVTMTTDTSTSTAYMELRSLRSDDTAVYYCARDSSSSWARWFFDLWGRGTLVTVSS
VL: SYVLTQPPSVSVAPGKTARITCGGNIIGSKLVHWYQQKPGQAPVLVIYDDGDRPSGIPERFSGSNSGNTATLTISRVEAGDEADYYCQVWDTGSDPVVFGGGTKLTVL
Take B4: in assay [7], the Kd worked out at 0.081 nM. Further, the figures for the IC50, TF-1細胞増殖アッセイ in [8] and in [9] were 0.9 nM and 1 nM, respectively. The molecule also registered an IC50, HDLM-2細胞増殖アッセイ in assay [10] of 3.5 nM. This molecule showed an IC50, HUVEC VCAM-1アップレギュレーション in assay [11] of 0.058 nM. The same molecule came in with an IC50, NHLFエオタキシン放出アッセイ in [11] of 0.118 nM.

B5: BAK1183H4 IgG4 (antibody, V domains shown)
VH: QVQLVQSGAEVKKPGASVKVSCKASGYTFTNYGLSWVRQAPGQGLEWMGWINYDGGNTQYGQEFQGRVTMTTDTSTSTAYMELRSLRSDDTAVYYCARDSSSSWARWFFDLWGRGTLVTVSS
VL: SYVLTQPPSVSVAPGKTARIPCGGNIIGSKLVHWYQQKPGQAPVLVIYDDGDRPSGIPERFSGSNSGNTATLTISRVEAGDEADYYCQVWDTGSDPVVFGGGTKLTVL
In the case of B5, the “IC50, TF-1細胞増殖アッセイ” value in [5] came to 1.6 nM.

B6: BAK1167F2 IgG4 (antibody, V domains shown)
VH: QVQLVQSGAEVKKPGASVKVSCKASGYTFEQTGVSWVRQAPGQGLEWMGWISANNGDTNYGQEFQGRVTMTTDTSTSTAYMELRSLRSDDTAVYYCARDSSSSWARWFFDLWGRGTLVTVSS
VL: SYVLTQPPSVSVAPGKTARITCGGNIIGSKLVHWYQQKPGQAPVLVIYDDGDRPSGIPERFSGSNSGNTATLTISRVEAGDEADYYCQVWDTGSDPVVFGGGTKLTVL
Consider B6, for which the Kd in assay [7] is 0.136 nM. Also, the “IC50, TF-1細胞増殖アッセイ” value is 1.3 nM in assay [5], 1 nM in [8] and 1.1 nM in [9]. This molecule registered an IC50, HDLM-2細胞増殖アッセイ in [10] of 1.1 nM. This molecule also yielded an IC50, HUVEC VCAM-1アップレギュレーション in assay [11] of 0.055 nM. In assay [11], the IC50, NHLFエオタキシン放出アッセイ is 0.069 nM.

B7: CAT-213 (antibody, from another filing, V domains shown)
VH: QVQLVQSGGGVVQPGRSLRLSCAASGFTFSSYGMHWVRQAPGKGLEWVAVISYDGSIKHYADSVKGRFTISRDNSKNTLYLQMNSLRTDDTAVYYCAGDTDYGDIDPWGQGTMVTVSS
VL: DIQMTQSPSSVSASVGDRVTITCRASQDISSWLAWYQQKPGKAPKLLIYAASSLQSGVPSRFSGSGSGTDFTLTISSLQPEDFATYYCQQASSFPSITFGQGTRLEIKR
As for B7, the 好酸球形態変化 (%ブランク形態変化), 100 nM CAT-213 in [12] turned out to be 101%.

(Values after patent publication JP2011147454A (dated 2011).)
